This note sets out measurements from patent US20120214173A1, “Methods of Identifying Modulators of an Ehd Polypeptide” (priority 2007, published 2012).

One data set has as its target T1, EHD2 (Mus musculus, UniProt Q8BH64).
T1 construct: Mouse EHD2 full-length protein and all mutants were expressed as N-terminal His-fusions followed by a PreScission cleavage site; His (N, cleaved yes); made in house; host or cells: Escherichia coli BL21 DE3 Rosetta
T1 sequence (Q8BH64 1-543): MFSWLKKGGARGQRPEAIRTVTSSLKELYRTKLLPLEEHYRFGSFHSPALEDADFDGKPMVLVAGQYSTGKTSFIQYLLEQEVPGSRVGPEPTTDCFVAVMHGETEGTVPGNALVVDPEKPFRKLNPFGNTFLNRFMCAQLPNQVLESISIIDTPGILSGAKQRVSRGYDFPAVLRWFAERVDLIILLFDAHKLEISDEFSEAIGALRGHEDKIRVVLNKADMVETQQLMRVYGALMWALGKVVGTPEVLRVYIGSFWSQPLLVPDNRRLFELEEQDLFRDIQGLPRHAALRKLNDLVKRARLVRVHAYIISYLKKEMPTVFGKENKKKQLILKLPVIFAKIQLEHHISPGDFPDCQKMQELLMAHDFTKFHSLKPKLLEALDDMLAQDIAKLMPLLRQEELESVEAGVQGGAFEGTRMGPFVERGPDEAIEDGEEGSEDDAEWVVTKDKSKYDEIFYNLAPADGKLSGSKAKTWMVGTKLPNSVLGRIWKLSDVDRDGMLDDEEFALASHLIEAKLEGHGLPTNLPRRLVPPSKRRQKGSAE
In words: Multiple turnover ATPase assay (nucleotide hydrolysis by HPLC) with or without Folch liposomes. The class given is biochemical. The settings on record: for kobs stimulated ATPase reaction: presence of 1 mg/ml Folch (or PS) liposomes. Summed up: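 10 μM EHD2 with 100 μM ATP in 20 mM HEPES pH 7.5, 135 mM NaCl, 15 mM KCl, 1 mM MgCl2 at 30 °C, with or without 1 mg/ml Folch liposomes. Reactions started by protein addition; hydrolysis tracked by HPLC, initial rates from linear fit up to 40% hydrolysis.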

Data set [1] can be described thus: Liposome co-sedimentation (membrane binding) assay. Conditions: Folch / PS liposomes. The procedure: (§1) Amino acid numbering corresponds to mouse EHD2. b, EHD2 binds to adenine nucleotides, as determined by ITC. For clarity, ΔΔH=ΔHn−ΔH1 is plotted. […] Images were acquired close to the basal cell surface. f, Nucleotide hydrolysis was measured by HPLC in the absence (empty symbols) or presence of Folch liposomes (filled symbols). Data represent mean and standard deviation for two (intrinisic reactions) or three (stimulated reactions) independent experiments.
Nucleotide hydrolysis was measured as described in FIG. 1f. In vitro tubulation activity of PS liposomes was analysed as described in FIG. 1d. f, EGFP-tagged mutants were over-expressed in HeLa cells. […] For each construct, three independent experiments with ≈50 cells/experiments were analysed.
ITC measurements were performed at 10° C. in 20 mM HEPES (pH 7.5), 300 mM NaCl, 2 mM MgCl2. Liposome binding assays were performed as described previously (www.endocytosis.org). Multiple turnover ATPase assays were performed in 20 mM HEPES (pH 7.5), 135 mM NaCl, 15 mM KCl, 1 mM MgCl2 at 30° C. with 10 μM EHD2 (or mutants) as enzyme and 100 μM ATP as substrate, in the absence or presence of 1 mg/ml Folch liposomes (Sigma-Aldrich).
Mouse full-length EHD2 was expressed in bacteria and purified to homogeneity (FIG. 5). The purified protein was nucleotide-free as judged by HPLC analysis. […] It was previously reported that EHDs—despite having a predicted G-domain—bind to adenine nucleotides^15. […] We still refer to this domain as a G-domain because the sequence and fold (see below) are clearly similar to other G-domains. […] Using synthetic liposomes containing various different phosphatidyl-inositols (PI) (FIG. 1c) we observed best binding to liposomes containing PI(4,5)bisphosphate (PIP2).

The nature of data set [2]: Negative stain EM of liposome tubulation/oligomerisation. The settings on record: 2.5 μM protein, PS liposomes. As for the experimental part: as §1
EHD2 was incubated with the indicated liposomes in the presence and absence of nucleotides and analysed by EM as described in Methods. a, EHD2 deformed PS liposomes into tubular networks, here in the presence of ATP-γ-S. b, Enlarged views of the indicated area in a. Note the presence of regularly spaced EHD2 rings (some are indicated with arrows). This even spacing may be due to the curvature stress generated by an EHD2 ring along the axis of the lipid tubule which might disfavour binding of the next ring in the direct vicinity (see below). c, Some of the lipid tubules (especially at higher protein concentration) were tightly packed with EHD2 oligomeric rings. d,e In the presence of ADP and in the absence of nucleotide (f,g), EHD2 also tubulated PS liposomes and formed ring-like structures around the tubules. e,g are enlarged views of the indicated areas in d and f, respectively.
Reactions were started by the addition of the protein to the final reaction mix and nucleotide hydrolysis was followed using standard HPLC measurement^27. Initial rates were determined by applying a linear fit to data points up to 40% nucleotide hydrolysis. For electron microscopic studies, 2.5 μM EHD2 in 20 mM HEPES (pH 7.5), 150 mM NaCl, 1 mM MgCl2 was incubated for 15 min at 25° C. in the presence of 1 mM nucleotide and 0.05 mg/ml (final concentration) of the indicated liposomes. Samples were spotted on carbon-coated copper grids (Canemco and Marivac) and negatively stained with 2% uranyl acetate.
Nucleotide-independence of liposome tubulation in vitro is also observed for dynamin^16. No noticeable tubule fission or alteration in tubule diameter was found for EHD2 in the presence of ATP. […] Folch liposomes were also tabulated by EHD2. However, with synthetic liposomes containing only 2.5% PIP2 and in the absence of PS, the amount of EHD binding was reduced, and in this less favourable binding condition we only observed tubulation in the presence of ATP-γ-S and ADP but not in the absence of nucleotides (FIG. 7).

A further data set concerns HeLa cells. In words: Over-expression of EGFP-tagged EHD2 and mutants in HeLa cells (confocal / live imaging). It is filed as cell-based. Conditions: for distribution of EGFP-tagged protein over-expressed in HeLa cells: 24 h after transfection, fixed; for dynamics of tubules and puncta by EPI-fluorescence live imaging: over-expressed 24 h, imaged approximately 30 min.
Data set [3] deals with the molecule itself. In words: negative stain EM on PS liposomes.
Data set [4] deals with T2, isolated EH-domain of EHD2 (mouse, UniProt Q8BH64 443-543, limits assumed).
T2 construct: domain: EH-domain; ITC buffer contained 200 µM CaCl2
T2 sequence (looked up): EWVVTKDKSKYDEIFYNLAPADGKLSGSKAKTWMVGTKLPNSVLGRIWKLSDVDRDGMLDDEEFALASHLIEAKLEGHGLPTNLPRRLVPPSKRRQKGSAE
In words: ITC at 10 °C, 100 mM HEPES pH 7.5, 50 mM NaCl, 200 µM CaCl2; peptide against the EH-domain of EHD2.

Data set [5] addresses T2, isolated EH-domain of EHD2. The experiment in a line: ITC at 10 °C, peptide against the EH-domain of EHD2.

Entries after “also recorded” stand apart in the source; their conditions may differ.

Consider “EHD2 deletion mutant of the EH-domain (ΔEH)”, for which the “membrane-stimulated ATPase activity” value in the data set with Q8BH64 is listed as “did not show any membrane-stimulated ATPase activity”.
In the case of “EHD2: mouse full-length EHD2 expressed in bacteria; EGFP-tagged in HeLa cells”, the “kobs intrinsic/background ATPase activity” value with EHD2 (10 μM protein, 100 μM ATP, 30° C., absence of liposomes) turned out to be 0.7 h⁻¹. The “kobs stimulated ATPase reaction” value with EHD2 (10 μM protein, 100 μM ATP, 30° C.) amounted to 5.6 h⁻¹. Besides, the “kobs stimulated ATPase reaction” value with EHD2 (10 μM protein, 100 μM ATP, 30° C., listed as wt) is 5.4 h⁻¹. For the same molecule, in the data set with EHD2 (Folch or PS liposomes versus no liposomes), the “stimulation of intrinsic ATP reaction by liposomes” value worked out at 8 fold. The “stimulated nucleotide hydrolysis slower than dynamin” value in the data set with EHD2 (stimulated condition, versus dynamin GTP hydrolysis) turned out to be 600 fold. In addition, in data set [1], the “binding to liposomes (co-sedimentation)” value is recorded as “efficient binding”. Further, the “liposome tubulation / oligomerisation by EM” value in data set [2] was “deforms PS liposomes in a nucleotide-independent manner into 20 nm-diameter tubules”. Besides, in the data set with HeLa cells, the “distribution of EGFP-tagged protein over-expressed in HeLa cells” value was “localised to puncta and tubular networks close to the cell surface; also recorded: marked punctate and tubular structures”; the “dynamics of tubules and puncta by EPI-fluorescence live imaging” value was “Some of the tubules and puncta are dynamic”.

B1: EHD2 T94A (enzyme, mouse, UniProt Q8BH64 1-543, looked up)
chain: MFSWLKKGGARGQRPEAIRTVTSSLKELYRTKLLPLEEHYRFGSFHSPALEDADFDGKPMVLVAGQYSTGKTSFIQYLLEQEVPGSRVGPEPTADCFVAVMHGETEGTVPGNALVVDPEKPFRKLNPFGNTFLNRFMCAQLPNQVLESISIIDTPGILSGAKQRVSRGYDFPAVLRWFAERVDLIILLFDAHKLEISDEFSEAIGALRGHEDKIRVVLNKADMVETQQLMRVYGALMWALGKVVGTPEVLRVYIGSFWSQPLLVPDNRRLFELEEQDLFRDIQGLPRHAALRKLNDLVKRARLVRVHAYIISYLKKEMPTVFGKENKKKQLILKLPVIFAKIQLEHHISPGDFPDCQKMQELLMAHDFTKFHSLKPKLLEALDDMLAQDIAKLMPLLRQEELESVEAGVQGGAFEGTRMGPFVERGPDEAIEDGEEGSEDDAEWVVTKDKSKYDEIFYNLAPADGKLSGSKAKTWMVGTKLPNSVLGRIWKLSDVDRDGMLDDEEFALASHLIEAKLEGHGLPTNLPRRLVPPSKRRQKGSAE
notes: mature; also called T94A mutant
Regarding B1, in the data set with EHD2 (presence of Folch liposomes), the “membrane-stimulated ATPase activity (in words)” value was “did not show any membrane-stimulated ATPase activity”. Also, the “liposome tubulation / oligomerisation by EM” value in data set [2] is listed as “oligomerised around PS liposomes”. Also, in the data set with HeLa cells, the “distribution of EGFP-tagged protein over-expressed in HeLa cells” value is on record as “extensive tubulation with no punctate stained; also recorded: labelled extensive tubular structures with essentially, no punctate staining”; the “dynamics of tubules and puncta by EPI-fluorescence live imaging” value is “only tubules, and these are mostly static”. Besides, the binding result in data set [3] is on record as “binds”.
With KLNPFGNT (also called side site NPF peptide) [peptide 124-KLNPFGNT from EHD2], the Kd (usually a measure of binding affinity in units of concentration) in data set [4] was 130 µM.
As for PEKPFRKL (also called side site KPF peptide) [peptide 118-PEKPFRKL from EHD2], the binding result in data set [5] is given as “no binding”.
On to RMGPFVER (also called top site GPF peptide) [peptide 418-RMGPFVER from EHD2], for which, in data set [5], the binding result is reported as “no binding”.
